Test results taken from patent US20240174727A1, “LONG-ACTING NATRIURETIC PEPTIDES AND USES THEREOF” (Eli Lilly and Company, priority 2022, published 2024).
Residue numbers refer to the chain shown, from its start. Numbered stars: 1 amine (or outer) side, 2 acyl side, 3 side chain; on linkers, the order of the positions; unused ones are H or OH. Bridge positions count the residues as written; N and C are the ends. Square brackets hold non-standard residues; d marks the D form. * marks the point of attachment. thioacetal = thioacetal linkage between two cysteines (intrachain bond at the bracketed Cys); C20 diacid = O=C(O)CCCCCCCCCCCCCCCCCCC(=O)*; γGlu = O=C(O)[C@H](CCC(=O)[*:2])N[*:1]; βAla = NCCC(=O)O

B1: HOOC-(CH2)18-CO-(γGlu)-EKEKEKG-PEG24-EK-βAla-RSS[CFGKRIDRIGHYSGLGC]PSFRHGSPSSGAPPPS-NH2 (peptide)
peptide: EKXRSSCFGKRIDRIGHYSGLGCPSFRHGSPSSGAPPPS
modifications: N-terminus acylated with HOOC-(CH2)18-CO-(γGlu)-; PEG24 after EKEKEKG; βAla; thioacetal linkage between the two bracketed Cys; C-terminal amide
B2: HOOC-(CH2)18-CO-(γGlu)-EKEKEKG-PEG24-EKPRSS[CFGKRIDRIGHYSGLGC]PSFRHGSPSSGAPPPS-NH2 (peptide)
peptide: B1 peptide with X3P
modifications: N-terminus acylated with HOOC-(CH2)18-CO-(γGlu)-; PEG24 after EKEKEKG; thioacetal linkage between the two bracketed Cys; C-terminal amide
B3: HOOC-(CH2)18-CO-(γGlu)-EKEKEKG-(AEEA)6-EK-βAla-RSS[CFGKRIDRIGHQSGLGC]PSFRHGSPSSGAPPPS-NH2 (peptide)
peptide: B1 peptide with Y18Q
modifications: N-terminus acylated with HOOC-(CH2)18-CO-(γGlu)-; (AEEA)6 after EKEKEKG; βAla; thioacetal linkage between the two bracketed Cys; C-terminal amide
B4: HOOC-(CH2)18-CO-(γGlu)-EKEKEKG-(AEEA)8-EK-βAla-RSS[CFGKRIDRIGHYSGLGC]PSFRHGSPSSGAPPPS-NH2 (peptide)
peptide: B1 peptide
modifications: N-terminus acylated with HOOC-(CH2)18-CO-(γGlu)-; (AEEA)8 after EKEKEKG; βAla; thioacetal linkage between the two bracketed Cys; C-terminal amide
B5: HOOC-(CH2)18-CO-(γGlu)-EKEKEKG-(AEEA)8-EKPRSS[CFGKRIDRIGHYSGLGC]PSFRHGSPSSGAPPPS-NH2 (peptide)
peptide: B1 peptide with X3P
modifications: N-terminus acylated with HOOC-(CH2)18-CO-(γGlu)-; (AEEA)8 after EKEKEKG; thioacetal linkage between the two bracketed Cys; C-terminal amide
B6: HOOC-(CH2)18-CO-(γGlu)-EKEKEKG-(AEEA)6-EKPRSS[CFGKRIDRIGHYSGLGC]PSFRHGSPSSGAPPPS-NH2 (peptide)
peptide: B1 peptide with X3P
modifications: N-terminus acylated with HOOC-(CH2)18-CO-(γGlu)-; (AEEA)6 after EKEKEKG; thioacetal linkage between the two bracketed Cys; C-terminal amide
B7: HOOC-(CH2)18-CO-(γGlu)-EKEKEKG-(AEEA)8-EK-βAla-RSS[CFGKRIDRIGHQSGLGC]PSFRHGSPSSGAPPPS-NH2 (peptide)
peptide: B1 peptide with Y18Q
modifications: N-terminus acylated with HOOC-(CH2)18-CO-(γGlu)-; (AEEA)8 after EKEKEKG; βAla; thioacetal linkage between the two bracketed Cys; C-terminal amide
B8: HOOC-(CH2)18-CO-(γGlu)-EKEKEKGEKPRSS[CFGKRIDRIG-Orn-QSGLGC]PSFRHGSPSSGAPPPS-NH2 (peptide)
peptide: XEKEKEKGEKPRSSCFGKRIDRIGXQSGLGCPSFRHGSPSSGAPPPS
modifications: N-terminus acylated with HOOC-(CH2)18-CO-(γGlu)-; Orn; thioacetal linkage between the two bracketed Cys; C-terminal amide

target: T1, rat NPRA (rat, UniProt P18910 29-1057); test: cell-based or functional assay
T1 sequence (looked up): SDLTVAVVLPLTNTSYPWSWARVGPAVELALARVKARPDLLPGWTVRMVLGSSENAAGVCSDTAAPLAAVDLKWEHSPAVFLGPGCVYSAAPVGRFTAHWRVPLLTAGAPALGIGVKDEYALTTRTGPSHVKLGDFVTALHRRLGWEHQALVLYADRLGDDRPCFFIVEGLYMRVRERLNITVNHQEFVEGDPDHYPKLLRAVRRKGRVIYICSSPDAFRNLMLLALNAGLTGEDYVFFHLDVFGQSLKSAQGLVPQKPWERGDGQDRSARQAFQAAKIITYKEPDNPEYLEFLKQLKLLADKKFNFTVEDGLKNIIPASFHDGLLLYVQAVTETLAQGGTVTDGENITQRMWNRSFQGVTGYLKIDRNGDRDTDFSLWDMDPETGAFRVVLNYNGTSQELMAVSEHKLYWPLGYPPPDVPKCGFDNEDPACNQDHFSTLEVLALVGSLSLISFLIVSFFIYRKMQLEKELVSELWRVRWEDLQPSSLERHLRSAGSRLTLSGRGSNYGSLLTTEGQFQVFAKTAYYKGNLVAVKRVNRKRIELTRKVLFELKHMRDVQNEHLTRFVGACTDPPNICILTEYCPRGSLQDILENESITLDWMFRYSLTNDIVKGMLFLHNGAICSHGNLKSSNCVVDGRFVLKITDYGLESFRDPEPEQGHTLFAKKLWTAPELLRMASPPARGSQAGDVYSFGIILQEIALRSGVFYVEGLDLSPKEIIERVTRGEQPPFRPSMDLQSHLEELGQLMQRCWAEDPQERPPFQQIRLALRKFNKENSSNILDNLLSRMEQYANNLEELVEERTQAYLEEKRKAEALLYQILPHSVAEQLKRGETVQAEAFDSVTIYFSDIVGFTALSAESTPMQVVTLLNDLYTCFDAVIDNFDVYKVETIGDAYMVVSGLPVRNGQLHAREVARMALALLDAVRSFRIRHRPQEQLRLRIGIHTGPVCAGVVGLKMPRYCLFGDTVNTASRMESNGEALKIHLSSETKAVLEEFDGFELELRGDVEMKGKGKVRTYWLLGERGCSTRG

Point of comparison: B3, “cGMP Assay (EC50, pM) w/BSA, rNPRA” value 623000 pM. Against it:
- {C20 diacid-γGlu}-EKEKEKGEKPRSSCFGKRIDRIGHQSGLGCPSFRHGSPSSGAPPPS-NH2 (bridge 14-30 via thioacetal) [HOOC-(CH2)18-CO-(γGlu)-EKEKEKGEKPRSS[CFGKRIDRIGHQSGLGC]PSFRHGSPSSGAPPPS-NH2] — lower, 341000 pM
- B1 — lower, 187000 pM
- B2 — lower, 80200 pM
- B5 — lower, 147000 pM
- B6 — lower, 150000 pM
- B7 — higher, 696000 pM
- {C20 diacid}-[γGlu]EKEKEKGEK[βAla]RSSCFGKRIDRIGHYSGLGCPSFRHGSPSSGAPPPS-NH2 (bridge 15-31 via thioacetal) [HOOC-(CH2)18-CO-(γGlu)-EKEKEKGEK-βAla-RSS[CFGKRIDRIGHYSGLGC]PSFRHGSPSSGAPPPS-NH2] — lower, 498000 pM
- {C20 diacid-γGlu}-EKEKEKGEKPRSSCFGKRIDRIGHQSGLGCPSFRHGSGSPSSGAPPPSG-NH2 (bridge 14-30 via thioacetal) [HOOC-(CH2)18-CO-(γGlu)-EKEKEKGEKPRSS[CFGKRIDRIGHQSGLGC]PSFRHGSGSPSSGAPPPSG-NH2] — higher, 816000 pM

Point of comparison: B8, “cGMP Assay (EC50, pM) w/Casein, rNPRA” value 192000 pM. Against it:
- {C20 diacid-γGlu}-EKEKEKGEKPRSSCFGKRIDRIGHQSGLGCPSFRHGSPSSGAPPPS-NH2 (bridge 14-30 via thioacetal) [HOOC-(CH2)18-CO-(γGlu)-EKEKEKGEKPRSS[CFGKRIDRIGHQSGLGC]PSFRHGSPSSGAPPPS-NH2] — lower, 2020 pM
- B1 — lower, 9630 pM
- B2 — lower, 4850 pM
- B3 — lower, 17900 pM
- B4 — lower, 11200 pM
- B5 — lower, 3990 pM
- B6 — lower, 3770 pM
- B7 — lower, 25400 pM
- {C20 diacid}-[γGlu]EKEKEKGEK[βAla]RSSCFGKRIDRIGHYSGLGCPSFRHGSPSSGAPPPS-NH2 (bridge 15-31 via thioacetal) [HOOC-(CH2)18-CO-(γGlu)-EKEKEKGEK-βAla-RSS[CFGKRIDRIGHYSGLGC]PSFRHGSPSSGAPPPS-NH2] — lower, 2010 pM
- {C20 diacid-γGlu}-EKEKEKGEKPRSSCFGKRIDRIGHQSGLGCPSFRHGSGSPSSGAPPPSG-NH2 (bridge 14-30 via thioacetal) [HOOC-(CH2)18-CO-(γGlu)-EKEKEKGEKPRSS[CFGKRIDRIGHQSGLGC]PSFRHGSGSPSSGAPPPSG-NH2] — lower, 2160 pM

target: T2, human NPRA (human, UniProt P16066 33-1061); test: cell-based or functional assay
T2 sequence (looked up): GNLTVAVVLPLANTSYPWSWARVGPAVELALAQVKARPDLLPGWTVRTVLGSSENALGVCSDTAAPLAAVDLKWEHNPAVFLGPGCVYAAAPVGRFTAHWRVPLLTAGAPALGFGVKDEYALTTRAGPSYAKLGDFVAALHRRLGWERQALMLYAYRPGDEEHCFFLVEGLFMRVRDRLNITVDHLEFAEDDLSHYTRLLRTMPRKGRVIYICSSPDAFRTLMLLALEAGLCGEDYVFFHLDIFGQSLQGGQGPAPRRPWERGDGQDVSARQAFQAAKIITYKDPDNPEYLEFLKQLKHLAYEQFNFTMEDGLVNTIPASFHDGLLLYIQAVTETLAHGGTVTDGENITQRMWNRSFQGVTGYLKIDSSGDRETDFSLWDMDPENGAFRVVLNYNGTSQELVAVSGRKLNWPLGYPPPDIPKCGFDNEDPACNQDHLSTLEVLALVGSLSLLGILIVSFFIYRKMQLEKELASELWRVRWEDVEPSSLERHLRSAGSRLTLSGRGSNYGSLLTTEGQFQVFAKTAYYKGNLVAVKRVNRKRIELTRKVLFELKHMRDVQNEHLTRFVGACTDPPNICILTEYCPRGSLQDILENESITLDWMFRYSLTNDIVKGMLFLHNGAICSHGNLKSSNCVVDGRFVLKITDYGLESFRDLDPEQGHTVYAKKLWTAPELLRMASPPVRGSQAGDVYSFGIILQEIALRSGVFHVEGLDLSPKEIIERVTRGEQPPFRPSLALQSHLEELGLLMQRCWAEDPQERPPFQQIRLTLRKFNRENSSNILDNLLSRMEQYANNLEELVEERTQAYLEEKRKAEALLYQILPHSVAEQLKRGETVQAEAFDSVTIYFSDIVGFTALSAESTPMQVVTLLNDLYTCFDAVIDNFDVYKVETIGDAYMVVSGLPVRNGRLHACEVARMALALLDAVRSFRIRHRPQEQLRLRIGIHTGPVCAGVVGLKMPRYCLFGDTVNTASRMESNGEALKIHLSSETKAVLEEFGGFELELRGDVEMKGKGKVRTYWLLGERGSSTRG

Point of comparison: B7, “cGMP Assay (EC50, pM) w/BSA, hNPRA” value 10000 pM. Against it:
- {C20 diacid-γGlu}-EKEKEKGEKPRSSCFGKRIDRIGHQSGLGCPSFRHGSPSSGAPPPS-NH2 (bridge 14-30 via thioacetal) [HOOC-(CH2)18-CO-(γGlu)-EKEKEKGEKPRSS[CFGKRIDRIGHQSGLGC]PSFRHGSPSSGAPPPS-NH2] — higher, 41500 pM
- B1 — lower, 4330 pM
- B2 — lower, 5170 pM
- B3 — higher, 12800 pM
- B5 — lower, 9550 pM
- B6 — lower, 6380 pM
- {C20 diacid}-[γGlu]EKEKEKGEK[βAla]RSSCFGKRIDRIGHYSGLGCPSFRHGSPSSGAPPPS-NH2 (bridge 15-31 via thioacetal) [HOOC-(CH2)18-CO-(γGlu)-EKEKEKGEK-βAla-RSS[CFGKRIDRIGHYSGLGC]PSFRHGSPSSGAPPPS-NH2] — higher, 23700 pM
- {C20 diacid-γGlu}-EKEKEKGEKPRSSCFGKRIDRIGHQSGLGCPSFRHGSGSPSSGAPPPSG-NH2 (bridge 14-30 via thioacetal) [HOOC-(CH2)18-CO-(γGlu)-EKEKEKGEKPRSS[CFGKRIDRIGHQSGLGC]PSFRHGSGSPSSGAPPPSG-NH2] — higher, 37600 pM

Point of comparison: B6, “cGMP Assay (EC50, pM) w/Casein, hNPRA” value 490 pM. Against it:
- {C20 diacid-γGlu}-EKEKEKGEKPRSSCFGKRIDRIGHQSGLGCPSFRHGSPSSGAPPPS-NH2 (bridge 14-30 via thioacetal) [HOOC-(CH2)18-CO-(γGlu)-EKEKEKGEKPRSS[CFGKRIDRIGHQSGLGC]PSFRHGSPSSGAPPPS-NH2] — higher, 703 pM
- B1 — higher, 741 pM
- B2 — higher, 736 pM
- B3 — higher, 493 pM
- B4 — higher, 497 pM
- B5 — higher, 902 pM
- B7 — higher, 542 pM
- {C20 diacid}-[γGlu]EKEKEKGEK[βAla]RSSCFGKRIDRIGHYSGLGCPSFRHGSPSSGAPPPS-NH2 (bridge 15-31 via thioacetal) [HOOC-(CH2)18-CO-(γGlu)-EKEKEKGEK-βAla-RSS[CFGKRIDRIGHYSGLGC]PSFRHGSPSSGAPPPS-NH2] — higher, 566 pM
- {C20 diacid-γGlu}-EKEKEKGEKPRSSCFGKRIDRIGHQSGLGCPSFRHGSGSPSSGAPPPSG-NH2 (bridge 14-30 via thioacetal) [HOOC-(CH2)18-CO-(γGlu)-EKEKEKGEKPRSS[CFGKRIDRIGHQSGLGC]PSFRHGSGSPSSGAPPPSG-NH2] — lower, 392 pM
